Earlier results on one molecule are cited in patent US12252714B2, “Halogenation of complex organic compounds” (REGENTS OF THE UNIVERSITY OF MICHIGAN, priority 2018, dated 2025).

Where two headings read alike, the source gives them in different places.

The conditions of the data set: cited from earlier work.

B1: Rdc2: eukaryotic FDH Rdc2, literature comparison (protein, UniProt B3FWT7 22-519, looked up)
Flavin-dependent halogenase …: AAALAREGNDVVLLEADQHPRYHIGESMLPSLRPLLRFIDLEDKFDAHGFQKKLGAAFKLTSKREGSHGPRGYSWNVVRSESDEILFNHARESGAQAFQGIKINAIEFEPYEEEYPNGEKVANPGKPTSAKWSSKDGSSGDIAFKYLVDATGRIGIMSTKYLKNRHYNEGLKNLAIWGYYKNNIPWAQGTPRENQPFFEGMRDGAGWCWTIPLHNGTVSVGAVMRKDLFFEKKKSLGENATNTQIMAECMKLCPTIGELLAPAELVSDIKQATDYSYSATAYAGPNFRIVGDAGCFIDPFFSSGHHLAVAGALAAAVSINASIKGDCTEYEASRWHAKKVDEGYTLFLLVVMAALKQIRMQENPVLSDVDEDGFDRAFQFLRPEAVKKFTKEDVAQTIDFAVHALNNMAELDMDIPEHMINGDKEGENGVTNGNNGAAKTAGLASNMEKLTNDEEKVLNGLRILGKAAPGGTLADFEGTAIDGLMPRLEHGKLGLNKV
On to B1, for which the catalytic efficiency (initial chlorination reaction) was 2.93 min⁻¹ mM⁻¹ and the catalytic efficiency (second chlorination reaction) was 0.11 min⁻¹ mM⁻¹.
